Measured values published in IntAct's records for PubMed 24794231.

B1: Cyclin-Y (Homo sapiens), Q8ND76 (parent)
chain: MGNTTSCCVSSSPKLRRNAHSRLESYRPDTDLSREDTGCNLQHISDRENIDDLNMEFNPSDHPRASTIFLSKSQTDVREKRKSLFINHHPPGQIARKYSSCSTIFLDDSTVSQPNLKYTIKCVALAIYYHIKNRDPDGRMLLDIFDENLHPLSKSEVPPDYDKHNPEQKQIYRFVRTLFSAAQLTAECAIVTLVYLERLLTYAEIDICPANWKRIVLGAILLASKVWDDQAVWNVDYCQILKDITVEDMNELERQFLELLQFNINVPSSVYAKYYFDLRSLAEANNLSFPLEPLSRERAHKLEAISRLCEDKYKDLRRSARKRSASADNLTLPRWSPAIIS

Variants of: B1
Conditions: with cul1_human CUL1, Q13616
Chain of cul1_human CUL1, Q13616 (Q13616 whole entry): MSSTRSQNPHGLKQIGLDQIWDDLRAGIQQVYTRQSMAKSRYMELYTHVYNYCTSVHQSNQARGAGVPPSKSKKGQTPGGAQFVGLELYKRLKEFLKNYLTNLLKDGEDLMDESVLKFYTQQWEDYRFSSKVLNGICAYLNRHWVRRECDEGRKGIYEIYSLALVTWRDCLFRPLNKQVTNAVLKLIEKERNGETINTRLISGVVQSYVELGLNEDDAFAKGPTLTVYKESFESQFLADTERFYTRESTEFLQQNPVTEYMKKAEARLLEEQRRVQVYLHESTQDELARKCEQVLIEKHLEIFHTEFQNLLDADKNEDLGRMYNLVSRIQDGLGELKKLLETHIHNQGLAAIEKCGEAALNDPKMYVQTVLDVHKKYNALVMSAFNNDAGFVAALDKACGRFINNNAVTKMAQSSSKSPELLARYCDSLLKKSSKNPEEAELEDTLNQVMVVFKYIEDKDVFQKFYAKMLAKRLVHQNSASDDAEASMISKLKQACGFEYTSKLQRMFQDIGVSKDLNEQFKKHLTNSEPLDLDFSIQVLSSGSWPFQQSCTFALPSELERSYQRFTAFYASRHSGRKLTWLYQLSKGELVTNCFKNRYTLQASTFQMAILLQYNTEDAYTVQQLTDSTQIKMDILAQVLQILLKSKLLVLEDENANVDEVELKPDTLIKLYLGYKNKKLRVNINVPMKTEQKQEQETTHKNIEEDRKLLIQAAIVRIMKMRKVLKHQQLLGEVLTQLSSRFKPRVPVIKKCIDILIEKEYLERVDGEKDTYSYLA

Variant | effect of a mutation on the interaction
S71A;S73A | disrupting interaction

Variants of: B1
Conditions: with cul1_human CUL1, Q13616
Remark: another data set of the same source

Variant | effect of a mutation on the interaction
S73A | decreasing interaction

Variants of: B1
Conditions: with cul1_human CUL1, Q13616
Remark: another data set of the same source

Variant | effect of a mutation on the interaction
S71A | decreasing interaction
